According to patent US7572771:
Several values for one entry are separate records, joined by “and”; a condition that tells them apart may be missing. Equal values may be shown once. Where no end group is shown, it is not given here.

What was measured:
[1] = target: human ABCA1 transporter (ATP-binding cassette transporter A1) (human) (UniProt O95477); experiment: cell-based or functional assay
[2] = target: human ABCA1 transporter (ATP-binding cassette transporter A1) (human) (UniProt O95477); experiment: two-step sequential competition on ABCA1-transfected HeLa cells; competitor at 8 µM, tracer 125I-L-37pA
[3] = target: human ABCA1 transporter (ATP-binding cassette transporter A1) (human) (UniProt O95477); experiment: 125I-L-37pA (1 µg/ml, 1 hour, 4° C.) bound to ABCA1-transfected HeLa cells, no competitor

Sequence of UniProt O95477 (O95477 whole entry): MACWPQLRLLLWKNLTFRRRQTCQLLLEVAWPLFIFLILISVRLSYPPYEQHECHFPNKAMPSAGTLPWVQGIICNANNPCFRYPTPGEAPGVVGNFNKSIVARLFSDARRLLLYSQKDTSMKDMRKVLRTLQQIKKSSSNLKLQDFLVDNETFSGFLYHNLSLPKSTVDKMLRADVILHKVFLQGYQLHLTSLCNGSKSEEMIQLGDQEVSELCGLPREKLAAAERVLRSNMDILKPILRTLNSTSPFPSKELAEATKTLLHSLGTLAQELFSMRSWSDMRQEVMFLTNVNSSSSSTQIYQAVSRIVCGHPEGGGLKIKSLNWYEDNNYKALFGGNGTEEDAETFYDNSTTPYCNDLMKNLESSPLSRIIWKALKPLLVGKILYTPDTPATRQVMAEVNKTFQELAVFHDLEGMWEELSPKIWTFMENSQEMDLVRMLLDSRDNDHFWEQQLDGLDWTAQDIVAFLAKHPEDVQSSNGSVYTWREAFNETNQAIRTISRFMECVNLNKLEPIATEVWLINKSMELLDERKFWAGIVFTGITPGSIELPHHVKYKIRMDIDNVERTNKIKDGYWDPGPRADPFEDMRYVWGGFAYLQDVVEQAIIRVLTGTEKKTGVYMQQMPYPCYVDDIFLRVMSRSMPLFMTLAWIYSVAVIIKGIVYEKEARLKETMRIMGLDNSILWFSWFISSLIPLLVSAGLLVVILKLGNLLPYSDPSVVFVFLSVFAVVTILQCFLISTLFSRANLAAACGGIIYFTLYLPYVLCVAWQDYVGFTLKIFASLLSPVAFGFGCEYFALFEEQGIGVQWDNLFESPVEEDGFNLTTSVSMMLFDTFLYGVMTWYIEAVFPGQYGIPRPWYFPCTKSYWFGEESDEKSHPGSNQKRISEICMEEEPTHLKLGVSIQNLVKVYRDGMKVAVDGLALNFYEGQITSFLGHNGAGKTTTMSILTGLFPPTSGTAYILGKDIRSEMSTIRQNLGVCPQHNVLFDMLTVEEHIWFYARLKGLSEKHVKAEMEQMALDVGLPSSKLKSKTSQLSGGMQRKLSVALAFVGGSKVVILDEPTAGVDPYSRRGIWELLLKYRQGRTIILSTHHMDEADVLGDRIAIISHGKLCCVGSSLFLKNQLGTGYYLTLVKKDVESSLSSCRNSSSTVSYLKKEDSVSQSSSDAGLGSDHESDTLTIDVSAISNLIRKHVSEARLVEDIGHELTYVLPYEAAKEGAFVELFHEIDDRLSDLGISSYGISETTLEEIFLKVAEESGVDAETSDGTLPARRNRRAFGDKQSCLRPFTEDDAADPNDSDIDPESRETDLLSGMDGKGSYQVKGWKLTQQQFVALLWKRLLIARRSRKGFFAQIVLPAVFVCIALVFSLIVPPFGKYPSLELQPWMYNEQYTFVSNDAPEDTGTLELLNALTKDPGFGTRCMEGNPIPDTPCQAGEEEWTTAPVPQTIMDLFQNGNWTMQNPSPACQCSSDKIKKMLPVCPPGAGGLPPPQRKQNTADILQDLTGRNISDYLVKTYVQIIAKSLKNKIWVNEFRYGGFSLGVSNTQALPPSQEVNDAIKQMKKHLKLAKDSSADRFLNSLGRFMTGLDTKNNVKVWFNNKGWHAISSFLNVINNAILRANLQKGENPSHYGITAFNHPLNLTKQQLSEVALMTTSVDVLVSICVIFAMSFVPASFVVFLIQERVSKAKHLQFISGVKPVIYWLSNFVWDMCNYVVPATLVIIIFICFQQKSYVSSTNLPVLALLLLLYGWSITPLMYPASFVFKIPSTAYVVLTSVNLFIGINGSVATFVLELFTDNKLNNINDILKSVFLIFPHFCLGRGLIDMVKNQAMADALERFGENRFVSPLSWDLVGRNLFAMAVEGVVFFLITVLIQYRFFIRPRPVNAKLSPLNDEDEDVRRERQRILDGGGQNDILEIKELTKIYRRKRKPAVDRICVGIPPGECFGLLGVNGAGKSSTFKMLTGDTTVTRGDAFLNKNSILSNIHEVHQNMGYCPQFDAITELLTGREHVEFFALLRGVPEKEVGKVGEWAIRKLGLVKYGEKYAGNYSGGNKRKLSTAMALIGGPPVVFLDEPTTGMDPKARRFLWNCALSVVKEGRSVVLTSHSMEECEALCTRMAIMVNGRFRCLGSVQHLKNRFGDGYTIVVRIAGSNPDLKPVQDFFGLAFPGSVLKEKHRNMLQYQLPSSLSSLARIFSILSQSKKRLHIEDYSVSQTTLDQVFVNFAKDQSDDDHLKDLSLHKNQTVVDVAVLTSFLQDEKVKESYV

cholesterol and phospholipid efflux, ABCA1 cells against control cells [1]: 2 fold and 4 fold | concentration at which lipid efflux begins to show saturation [1]: 2 µM | percent of labeled L-37pA binding blocked [2]: 40% | cell-bound radiolabeled peptide in the absence of a competitor (pmol/mg cell protein) [3]: 35
Binder: DWLKAFYDKVAEKLKEAFPDWLKAFYDKVAEKLKEAF (also: tracer form 125I-labelled with iodine monochloride) [L-37pA peptide]
